The target of the assay is Cy5 N-terminal-labeled WWP2 (human) (UniProt O00308). As to the kind of experiment: MST; 10 nM N-terminal Cy5-labeled WWP2, NDP52 (up to 48 uM) or OPTN (up to 60 uM) in two-fold serial dilution; 25 mM Hepes pH 7.8, 250 mM NaCl, 1 mM TCEP, 0.5 mg/ml BSA, 0.05% Tween-20; room temperature; apparent KD, quadratic model.

B1: NDP52 (natural protein)
chain: MEETIKDPPTSAVLLDHCHFSQVIFNSVEKFYIPGGDVTCHYTFTQHFIPRRKDWIGIFRVGWKTTREYYTFMWVTLPIDLNNKSAKQQEVQFKAYYLPKDDEYYQFCYVDEDGVVRGASIPFQFRPENEEDILVVTTQGEVEEIEQHNKELCKENQELKDSCISLQKQNSDMQAELQKKQEELETLQSINKKLELKVKEQKDYWETELLQLKEQNQKMSSENEKMGIRVDQLQAQLSTQEKEMEKLVQGDQDKTEQLEQLKKENDHLFLSLTEQRKDQKKLEQTVEQMKQNETTAMKKQQELMDENFDLSKRLSENEIICNALQRQKERLEGENDLLKRENSRLLSYMGLDFNSLPYQVPTSDEGGARQNPGLAYGNPYSGIQESSSPSPLSIKKCPICKADDICDHTLEQQQMQPLCFNCPICDKIFPATEKQIFEDHVFCHSL
Consider B1, for which the Kd was found to be 19 µM.

Values taken from publication PMC9034101.
